Usually Kd stands for the free concentration of one partner at which half of the binding sites on the other are occupied at equilibrium, for simple one-to-one binding. For orientation: IC50 means the point on the concentration scale where inhibition reaches its midpoint.

Where two headings read alike, the source gives them in different places.

The text below walks through data of patent publication US11464867B2, “Multimeric elastin-like polypeptides” (University of Southern California, priority 2018, dated 2022).

Data set [1] in a line: CsA encapsulation by two-phase solvent evaporation, RP-HPLC. It counts as physicochemical. Particulars: for CsA loading ratio: FIG. 16. As to the method: The mixture was incubated at 37° C. and samples were collected at different time points up to 48 h.
This was followed by high-speed centrifugation and filtration to remove the excess insoluble drug. […] The mobile phase flow rate was set to 1.0 ml/min. The linear gradient from 20% to 95% of methanol was applied from 0 to 5 min. Then the mobile phase was changed to 95% methanol isocratic flow for 10 min.
This was followed by high-speed centrifugation and filtration to remove the excess insoluble drug. The loading ratio was then determined by reversed-phase high-performance liquid chromatography (RP-HPLC) analysis method.
The drug loading capability of 2nd and 3rd generation carriers were also tested using the same encapsulation method detailed above employing the method of Shi, et al., 2013.

Data set [2] in a line: Phase transition temperature by optical density (UV-Vis, 350 nm) versus temperature. The conditions noted are these: for Transition temperature at 25 μM: Table 5; for Transition temperature (Tt): at 25 μM, 1° C./min. It counts as physicochemical. As to the method: The temperature with the maximum positive slope was defined as the phase transition temperature for each condition. (FIG. 2B) The concentration-temperature phase diagram was determined for both ELPs, and fit to the following equation: Tt=b−m Log10[CELP].
Both ELPs at different concentrations (5 μM to 100 μM) were subject to a precisely controlled temperature increase from 25 to 75° C. at a rate of 1° C./min. The Tt of ELPs is defined as the temperature at which the first derivative of the optical density with respect to the temperature reaches a maximum.

A short description of data set [3]: Isothermal titration calorimetry of 5FA/Rapa interaction. Type of data set: binding. The conditions noted are these: ITC. From the text:
Using Isothermal Titration calorimetry (ITC), the binding stoichiometry of 5FA/Rapa interaction was estimated to be 5. […] An overall negative Gibbs free energy (−10 kJ/mol interactions) indicates FKBP/Rapa binding is thermodynamically favorable.

The test system of data set [4] is IL-2 secretion, Jurkat cells. The experiment in a line: IL-2 secretion assay in activated Jurkat cells (ELISA). Type of data set: cell-based. Particulars: Homo sapiens, n=3, mean±SD. As to the method:
Upon stimulation, Jurkat cells produce IL-2.
IL-2 concentration in culture media is then assessed using ELISA assay.

A short description of data set [5]: Multivariate fit of the phase diagram of ELP monoblock copolymers. The conditions noted are these: for Tc: critical transition temperature; for n: dependence on inverse of ELP length; for m: dependence on natural logarithm of concentration; for K: interaction term between length and concentration. Type of data set: physicochemical. From the text: The Tt of the ELP component can be modified by varying ELP chain length, as the Tt generally increases with decreasing MW. For polypeptides having a molecular weight >100,000, the hydrophobicity scale developed by Urry et al. (PCT/US96/05186, which is hereby incorporated by reference in its entirety) is preferred for predicting the approximate Tt of a specific ELP sequence. However, in some embodiments, ELP component length can be kept relatively small, while maintaining a target Tt, by incorporating a larger fraction of hydrophobic guest residues (e.g., amino acid residues having hydrophobic side chains) in the ELP sequence. For polypeptides having a molecular weight <100,000, the Tt may be predicted or determined by the following function:
[formula] where Tc is a critical transition temperature, m is the dependence on the natural logarithm of concentration, n is the dependence on the inverse of the ELP length l, and k is an interaction term between length and concentration.

A short description of data set [6]: Dynamic light scattering (DLS) hydrodynamic radius and stability. It counts as physicochemical. Particulars: 99.2% by mass of fraction 2. As to the method: FIGS. 5A-5D: CA192 (SEQ ID NO: 3) has a good stability in terms of hydrodynamic radius. There are two fractions present in the CA192 (SEQ ID NO: 3) solution: an aggregated form and dimeric form. A dimerized form has similar hydrodynamic radius, Rh as A192. […] Drug-loaded CA192 (SEQ ID NO: 3) has a mean Rh of 64.5±0.5 nm (p<0.05). […] (FIG. 5C) Size Exclusion Chromatography (SEC) was conducted to fractionate CA192 (SEQ ID NO: 3) depending on their particle size. Two fractions were observed. […] In contrast, the fraction 1 contains a mixture of larger aggregates.
The hydrodynamic radius (Rh) of both the loaded and unloaded fusion protein, along with plain A192, was measured via dynamic light scattering (DLS) using a DynaPro Plate Reader II from Wyatt Technology. Before the DLS measurement, solutions were filtered through […] pore size filters. The concentration of each solution was then adjusted to 20 μM. 60 μL from each sample was pipetted into three different wells on the plate reader and covered by 15 μL mineral oil each to avoid solvent evaporation. Centrifugation was then performed to remove air bubbles. […] Based on this DLS method, Applicants performed a stability assay to explore the stability of the fusion protein by measuring the mean Rh shift during incubation at physiological temperature. Briefly, the fusion solution was incubated at 37° C. for different periods of time up to 48 h and the mean Rh of CA192 at these different time points was measured with DLS. […] There might be some slight aggregation occurring in the CA192 protein solution. […] To determine if this was the case, further separation was conducted with size exclusion chromatography (SEC). This process was performed at 4° C. using a Hiload 26/600 column (26×600 mm, particle size 24-44 μM). […] Fragments with absorption above 10 mAu were collected and concentrated with a Spin-X concentrator (pore size 10 kDa). […] (FIG. 5D) Through measuring the CA192 concentration of both fractions, Applicants determined that 20.8% by mass in solution is represented by the multimerized particles. […]

For “3(CA)C: 3rd generation carrier CypA-A24-CypA-A24-CypA-A24-CypA, SEQ ID NO: 9”, the CsA loading ratio in data set [1] was 209.0%.
On to “5FA: 5 FKBP domains linked by ELP A24, SEQ ID NO: 10”, for which the “Transition temperature at 25 μM” value in data set [2] was found to be 53.2 °C. In data set [3], this molecule registered a Gibbs free energy of −10 kJ/mol interactions, a TAS of −48 kJ/mol interactions and a binding enthalpy of −58 kJ/mol interactions. For the same molecule, the equilibrium dissociation constant (Kd) in data set [3] (true KD likely lower, beyond limit of detection, read-out: equilibrium dissociation constant (KD)) is not above 1.5 nM.
With “5FV: 5 FKBP domains linked by ELP V24, SEQ ID NO: 11”, the “Transition temperature at 25 μM” value in data set [2] amounted to 27.7 °C.
On to `C/C=C/C[C@@H](C)[C@@H](O)[C@H]1C(=O)N[C@@H](CC)C(=O)N(C)CC(=O)N(C)[C@@H](CC(C)C)C(=O)N[C@@H](C(C)C)C(=O)N(C)[C@@H](CC(C)C)C(=O)N[C@@H](C)C(=O)N[C@H](C)C(=O)N(C)[C@@H](CC(C)C)C(=O)N(C)[C@@H](CC(C)C)C(=O)N(C)[C@@H](C(C)C)C(=O)N1C` [CsA, Cyclosporin A], for which the IC50 was 0.522 ± 0.152 nM in data set [4] (PMA and Ionomycin, 6 h, read-out: IC50, IL-2 secretion assay); 0.522 ± 0.152 nM in data set [4] (FIG. 10 legend, read-out: IC50, IL-2 inhibition).
As to “(Val-Pro-Gly-Ala-Gly): ELP monoblock library, SEQ ID NO: 61 (VPGAG)”, in data set [5], the Tc turned out to be 40.5 ± 1.6 °C, the n came out at 7009 ± 345 °C pentamers, the m is recorded as 0 ° C./ln(μM) and the K was −850.1 ± 51.5 °C pentamers/ln(μM).
For “(Val-Pro-Gly-Ile-Gly): ELP monoblock library, SEQ ID NO: 63 (VPGIG)”, in data set [5], the Tc turned out to be 13.0 ± 0.6 °C, the n was determined as 760 ± 30 °C pentamers, the m is 0 ° C./ln(μM) and the K was −81.2 ± 7.9 °C pentamers/ln(μM).
In the case of “(Val-Pro-Gly-Ser-Gly): ELP monoblock library, SEQ ID NO: 60 (VPGSG)”, in data set [5], the Tc came out at 63.6 ± 1.1 °C, the m is −1.86 ± 0.31 ° C./ln(μM) and the K is 0 °C pentamers/ln(μM).
Regarding “(Val-Pro-Gly-Val-Gly): ELP monoblock library, SEQ ID NO: 62 (VPGVG)”, in data set [5], the Tc was found to be 21.2 ± 0.9 °C, the n is 1607 ± 90 °C pentamers, the m is given as 0 ° C./ln(μM) and the K was −163.1 ± 23.3 °C pentamers/ln(μM).
Take “CA96C: 2nd generation carrier CypA-A96-CypA, SEQ ID NO: 8”: the CsA loading ratio in data set [1] was found to be 127.5%.
On to “CV96: cyclophilin A fused to ELP V96, SEQ ID NO: 4”, for which the “Transition temperature (Tt)” value in data set [2] amounted to 31.2 °C. The “Slope, m” value in data set [2] (fit Tt = b - m Log10[CELP], Table 3) was 4.4 ° C./Log10(μm). For the same molecule, the “Intercept, b” value in data set [2] (intercept at 1 μM, Table 3) is 36.8 °C. The “CsA loading compared with a comparator” value in data set [1] (in words) was “higher loading ratio”.
As for “dimerized CA192: dimeric fraction of CA192 isolated by size exclusion chromatography”, the “Transition temperature (Tt)” value in data set [2] stood at 49.3 °C. Besides, the “hydrodynamic radius (Rh) after SEC” value in data set [6] is listed as 6.5±0.1 nm.
